Results published in publication doi:10.1101/2020.02.27.968578.
pKd: −log10 of the molar value.

Legend:
YFP = YFP (UniProt P42212); assay: cited; settings: PBS, 5 mM MgCl2, pH 7.4, room temperature, 5 min; 50 nM GFP, excitation 480 nm; cited from earlier work
CFP = CFP (UniProt P42212); assay: cited; settings: PBS, 5 mM MgCl2, pH 7.4, room temperature, 5 min; 50 nM GFP, excitation 480 nm; cited from earlier work
EGFP [1] = target: EGFP (UniProt P42212); assay: cited; settings: PBS, 5 mM MgCl2, pH 7.4, room temperature, 5 min; 50 nM GFP, excitation 480 nm; cited from earlier work
EGFP [2] = target: EGFP (UniProt P42212); assay: GFP fluorescence quenching titration; settings: PBS, 5 mM MgCl2, pH 7.4, room temperature, 5 min; 50 nM GFP, excitation 480 nm

GGGAGCUUCUGGACUGCGAUGGGAGCACGAAACGUCGUGGCGCAAUUGGGUGGGGAAAGUCCUUAAAAGAGGGCCACCACAGAAGC [AP3 (GFP aptamer)]
pKd (YFP): 8.00
pKd (CFP): 8.00
pKd (EGFP [1]): 8.40
pKd (EGFP [2]): 8.40
